Values quoted from earlier work as cited in paper PMC11178655, “Dosimetry and pharmacokinetics of [^177Lu]Lu-satoreotide tetraxetan in patients with progressive neuroendocrine tumours” (European Journal of Nuclear Medicine and Molecular Imaging, 2024).

Tests used:
[1] = tested on: patients with NETs; conditions: human, in vivo; cited from earlier work
Excerpt: In the present study, we observed tumour ADCs of 5.0 Gy/GBq after cycle 1 and 4.0 Gy/GBq after cycle 3. These tumour ADCs are consistent with previously reported findings from a direct comparison of [^177Lu]Lu-satoreotide tetraxetan and [^177Lu]Lu-DOTA-TATE in the same tumours and patients in a cross-over design, which reported median tumour dose of [^177Lu]Lu-satoreotide tetraxetan of 7.0 Gy/GBq (range: 4.2–29 Gy/GBq), 3.5 times greater than the median tumour dose of [^177Lu]Lu-DOTA-TATE [22]. However, it should be noted that median tumour dose in this pilot study was calculated from a limi ... || The median ADC of [^177Lu]Lu-satoreotide tetraxetan for the bone marrow using a blood-based approach was lower than reported in other [^177Lu]Lu-satoreotide tetraxetan studies. The result is, however, similar to the mean blood-based radiation ADCs for the bone marrow reported for [^177Lu]Lu-DOTA-TATE [32].

[2] = in vivo; cited from earlier work
Excerpt: In addition, consistent with their specific binding to SSTR, both [^177Lu]Lu-satoreotide tetraxetan and [^177Lu]Lu-DOTA-TATE predominantly show uptake in tumours, followed by the kidneys, spleen, and liver.

For [^177Lu]Lu-DOTA-TATE, the “Blood-based bone marrow ADC” value [1] is given as no more than 0.02 Gy/GBq, the “Image-based bone marrow ADC” value [1] is given as “up to 0.06 Gy/GBq” and the “Median absorbed dose to the tumour” value [1] is given as 4.6 Gy/GBq. For the same substance, the “Mean terminal blood half-life” value [2] was 72 h.
